Paper PMC5943153 (Molecular microbiology, 2018)

T1: T25-HP1492 (Nfu) (Helicobacter pylori strain 26695, UniProt O26025 2-89)
T1 sequence (looked up): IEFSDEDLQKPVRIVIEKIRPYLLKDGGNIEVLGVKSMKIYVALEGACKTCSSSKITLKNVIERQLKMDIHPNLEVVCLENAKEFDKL

T2: T25-HP0221 (NifU) (Helicobacter pylori strain 26695, UniProt O25009 2-326)
T2 sequence (looked up): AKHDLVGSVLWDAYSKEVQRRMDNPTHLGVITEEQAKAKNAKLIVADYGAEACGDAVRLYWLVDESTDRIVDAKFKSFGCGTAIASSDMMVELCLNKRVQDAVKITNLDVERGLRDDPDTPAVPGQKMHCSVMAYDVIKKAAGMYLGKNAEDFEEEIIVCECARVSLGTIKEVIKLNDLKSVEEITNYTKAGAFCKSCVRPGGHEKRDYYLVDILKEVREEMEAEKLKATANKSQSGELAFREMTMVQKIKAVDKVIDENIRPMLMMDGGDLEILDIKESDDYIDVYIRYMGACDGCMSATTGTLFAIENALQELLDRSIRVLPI

T3: HP0221-T25 (NifU) (Helicobacter pylori strain 26695, UniProt O25009 2-326)
T3 sequence (looked up): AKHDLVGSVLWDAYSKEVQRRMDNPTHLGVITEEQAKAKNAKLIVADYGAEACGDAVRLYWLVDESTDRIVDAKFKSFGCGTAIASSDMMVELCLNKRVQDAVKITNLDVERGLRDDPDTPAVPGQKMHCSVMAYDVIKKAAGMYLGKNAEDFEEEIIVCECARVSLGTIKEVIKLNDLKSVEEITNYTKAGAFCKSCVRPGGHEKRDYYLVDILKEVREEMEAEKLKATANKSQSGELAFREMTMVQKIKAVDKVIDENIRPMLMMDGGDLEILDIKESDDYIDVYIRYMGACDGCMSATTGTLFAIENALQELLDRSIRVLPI


Legend:
Assay in all cases: two-hybrid
T25-HP1492 (Nfu) = target: T1, T25-HP1492 (Nfu)
T25-HP0221 (NifU) = target: T2, T25-HP0221 (NifU)
HP0221-T25 (NifU) = target: T3, HP0221-T25 (NifU)

Binder | growth OD595 in M63-maltose (T25-HP1492 (Nfu)) | growth OD595 in M63-maltose (T25-HP0221 (NifU)) | growth OD595 in M63-maltose (HP0221-T25 (NifU))
T18-HP1222 (natural protein, Helicobacter pylori strain 26695, UniProt O25820 2-948, looked up) RVEENYHAFFTEASGFLNERIFKDYLRRLAYGIDASCYRYIPKIVAWVKNEEEVQKLCVLAKKHGVSLTFRAAGSSLSGQAICDGVLVMVTHFFKDAQILDNAQSIQLSCGVIGSNANALLKPYHKKIGPDPSTINTAMIGGIVANNASGMCCGVEQNSYKTLKSLRVILADGTLLDTANQESVESFKNAHKDLIEGVLNLRKEILEDKELHALIKKKYEIKNTTGYSLNALIDFEDPIEIISHLFIGSEGTLGFISSVELECVKDYAYKTCALLFYENLERCAKAAQILAALKAKQPEMISSAELMDYACLKSVKGLEGMPSVVLEIKEPNACLLIQSESDDPLILENSMQTILNALSAIPVVLDSQISSDPSIYQSWWKIRKGIFPIAASKRKSQSSVIIEDICFSQEDFVEGAKAIEGLLKKHGFKDNGIIFGHALSGNLHFVVTPILENEAERKAFENLVSEMFLMVSKSSGSIKAEHGTGRMVAPFVEMEWGEKAYKIHKQIKELFDPNGILNPDVIITNDKEIHTKNLKSIYPIEEHLDMCMECGFCERICPSKDLSLTPRQRIVIHREVEHLKERVSHGHHEDQVLLDELLKESEYLAHATCAVCHMCSTLCPLEIDTGKIALNYYQKNPKGEKIASKILNHMQTTTSMARFSLKSARLVQNLIGSHNLVSLTKGIKKFIKPFPKAFYYMPKNNAYPLENKTLKSEEKVIYFSTCINRSFAPSNKMADKRCIQEVFESLCQKAKVSVMYPNGLNALCCGKAFINYTDLTKQNNEKNHAIFLQLSDKGKIPIVLDHSACSTHFFKQMKAYKDLKVYDLSVYIEEVLSPKLKFNPINEDIGLYTMCALKLENKEELLFNLAKKCTLGEIVIHKETGCCGFAGNKGFFTPELNESALNGFQAFYQSYDLKRGFSTSSTCEIGLSEKTRFSWQHIAYLVDACTL | 0.06 OD595 |  | 
T18-HP0779 (natural protein, Helicobacter pylori strain 26695, UniProt P56418 2-852, looked up) KDFLEDYKKSVSERGSEGIPPLPLNAKQVQAVVEILTKDPTNAAFAKELLIHRVSPGVDEGAKVKAEFLAKLSQKKLECVHISALEATTLLGTMLGGYNVEPLIMGLESQDKNIAKESAKALKTTLLVYGSFDKIAAMSKTNALAKEVLESWANAEWFLNKEPLNECIEACVFKIDGETNTDDLSPASDAFTRSDIPLHAKAMLKNRIENYEQRIKAIKTKGVPVAYVGDVVGTGSSRKSATNSIMWHFGKDIPFVPNKRSGGIVIGGVIAPIFFATCEDSGALPIVADVKDLKEGDLIKIYPYKGEITLNDKVVSTFKLEPETLLDEVRASGRIPLIIGRGLTNKARKFLGLGESEAFKKPSAPKSDAKGYTLAQKIVGHACGVKGILPGTYCEPKVTTVGSQDTTGAMTRDEVKELASLKFDAPFVLQSFCHTAAYPKPSDVSLHATLPGFITQRGGVALHPGDGVIHTWLNRMGLPDTLGTGGDSHTRFPLGISFPAGSGLVAFAAVTGTMPLNMPESVLVRFKGEMNPGITLRDLVNAIPYYAIKKGLLTVEKKGKINVFNGRILEIEGLPDIKMEQAFELSDASAERSAAACVVRLNKEPMIEYLKSNIKLIDEMIASGYEDKETLKKRRDAMQAWVDNPVLLEPDSNAQYAAVIEIDVAEITEPILACPNDPDDVATLSEVLADTTGKRPHAIDEVFIGSCMTNIGHFRAFGEIVKNAPPSQARLWVVPPSKMDEQELINEGYYAIFGAAGARTEVPGCSLCMGNQARVRDNAVVFSTSTRNFDNRMGRGAKVYLGSAELGAACALLGRIPTKEEYMNLVSEKLESQKDKIYRYMNFNLMENFRL | 0.17 OD595 |  | 
T18-HP0656 (natural protein, Helicobacter pylori strain 26695, UniProt O25370 2-383, looked up) ARNVKGYASTLTWTITRNTLNFLWEQGFKMRINREEILDLMKNAPLKELGQRALRVKQRLHPENLTTFIVDRNINYTNICFVDCKFCAFKRTLKEKDAYVLSYEEIDQKIEELLAIGGTQILFQGGVHPQLKIDYYENLVSHIAQKFPTITIHGFSAVEIDYISKISKLSLKEVLERLKNAGLSSIPGAGAEVLSDRVRDVIAPKKLSSDRWIEVHRMAHLCGIKSTATMMFGSVDNEEDVVEHLQRVRDLQDETGGFRAFILWSFQPNNTPLKEEIPSIKKASSNRYLRYLACSRIFLDNIQNIQSSWVTQGSMIGQLALLFGANDLGSVMMEENVVKAAGTSFCMNEAGMIELIEDIGSVAAKRNTAYEILKRYPAKAKV |  | 0.13 OD595 | 0.26 OD595
T18-HP0654 (natural protein, Helicobacter pylori strain 26695, UniProt O25368 2-360, looked up) DFLEKVLDNQVTESKELVRLYDYDLYTLGEVADRMRQNMHQKIVYFNVNRHLNPSNICADACKFCAFSAHRKNPNPYEMSLEEILEKVKNSYNKGIKEVHIVSAHNPNYSYEWYLKVFETIKQEMPNLHLKAMTAAEVHFLSVKFNKPFELVLEDMLKAGVDSMPGGGAEIFDEEIRRKICNGKVGSSRWLEIHAYWHKLGKMSNATMLFGHIENKIHRIDHMLRIKKIQSPKNQVENKEGGFNAFIPLLYQKENNYLNVEKSPSAIEILKTIAISRILLNNIPHIKAYWATLGLNLALVAQEFGANDLDGTIEIESIQSAAGAKSRHGLEKEDLIFKIKDAGFVAVERDSLYNFIQKF |  | 0.09 OD595 | 0.33 OD595
T18-HP0625 (natural protein, Helicobacter pylori strain 26695, UniProt O25342 2-359, looked up) LENRVKTKQIFIGGVAIGGDAPISTQSMTFSKTADIESTKNQIDRLKLAGADLVRVAVSNEKDALALKELKKVSPLPLIADIHFHYKFALIAAQSVDAIRINPGNIGSKEKIKAVVDACKEKNIPIRIGVNAGSLEKQFDQKYGPTPKGMVESALYNAKLLEDLDFTNFKISLKASDVIRTIEAYRMLRPLVIYPFHLGVTEAGNLFSSSIKSAMALGGLLMEGIGDTMRVSITGELENEIKVARAILRHSGRLKEGINWISCPTCGRIEANLVDMAIKVEKRLSHIKTPLDISVMGCVVNALGEAKHADMAIAFGNRSGLIIKEGKVIHKLAEKDLFETFVIEVENLAKEREKSLKD |  | 0.11 OD595 | 0.37 OD595
T18-HP0665 (natural protein, Helicobacter pylori strain 26695, UniProt O25376 2-457, looked up) QTIDFEKFSQYSKPGPRYTSYPTAVEFNENFNEESLKTAFFNHDNLKNPMPLSLYTHLPFCRSACYFCACSVIYTSLEEKKIRYISYLKKELALLKNAMDTNREVAQFHYGGGTPTFFSPIQLDEITQSIQEVFPNFSKDIEMSCEIDPRHFTKEHMQTLFDRGFNRLSFGVQDFDFEVQKAIHRIQPFEMVQESVKLARDYGIKSINFDLIYGLPNQTKEGFLKTLEWVLKLDPDRLAVFNYAHVPWVKKTMRKIDETLLPSLRDKLEILESLISFLEKANYQMIGMDHFAKSDNELYLALQKAELRRNFQGYTTKKFTQTIGIGVTSIGEGGDYYTQNYKDLHHYEKALDLGHLPVERGVALSQEDVLRKEVIMQMMSNLKLDYSKIEEKFSVDFKAHFKKELEKLKPYEEAGLLSFNSKGFEMTKTGGMLVRNMAMEFDAYLRGGEKHFSKTL |  | 0.07 OD595 | 0.06 OD595
T18-HP0117 (natural protein, Helicobacter pylori strain 26695, UniProt P56080 2-308, looked up) AKENPPIVFGPVLSRRFGKSLGVDLSPSKKQCNYNCIYCELGKAKPIERMEEVIKVETLINAIQNALNNLTTPIDVLTITANGEPTLYPHLLELIQSIKPFLKGVKTLILSNGSLFYEPKVQQALKEFDIVKFSLDAIDLKAFERVDKPYSKDINKILEGILRFSQIYQGQLVAEVLLIKGVNDSANNLKLIAAFLKQINIARVDLSTIDRPSSFKAPKLSEDELLKCSLFFEGLCVSLPKRSITQAKKLISCGIDELLALISRRPLSAEEAPLILDSNAFKHLETLLNHKQITIKKVGSLEFYCAF | 0.09 OD595 |  | 
T18-HP0631 (natural protein, Helicobacter pylori strain 26695, UniProt O25348 2-384, looked up) FYDEKKTYQKIEERLDIVRSFNAHNEHKNLQDEFKGAGISRRDLLKWAGMMSTALALPASFAPLTLKAVEVANRLPVIWLHMAECTGCSESLLRSADPTIDSIIFDYINLEYHETIMVASGFQAEKSLHDAIEKHKNNYILMVEGGIPQGTEYFLTQGPNAETGAEECRKAAQYAAAIFAIGTCSSFGGVQAAYPNPSNAQPLHKIIDKPVINVPGCPPSEKNIVGNVLYYLMFGALPKLDAYNRPSWAYGNRIHDLCERRGHFDAGEFVEHFGDENAKRGFCLYKMGCKGPYTFNNCSKLRFNSHTSWPIGAGHGCIGCSEPNFWDTMSPFEEPLANRSIKTAFDGLGADKVADKVGTTLLSATAIGIVAHALLSKAIKNKE |  | 0.08 OD595 | 0.24 OD595
T18-HP0285 (natural protein, Helicobacter pylori strain 26695, UniProt P56130 2-418, looked up) KKVYFKTFGCRTNLFDTQVMSENLKDFSTTLEEQEADIIIINSCTVTNGADSAVRSYAKKMARLDKEVLFTGCGVKTQGKELFEKGFLKGVFGHDNKEKINALLQEKKRFFIDDNLENKHLDTTMVSEFVGKTRAFIKIQEGCDFDCNYCIIPSVRGRARSFEERKILEQVGLLCSKGVQEVVLTGTNVGSYGKDRGSNIARLIKKLSQIAGLKRIRIGSLEPNQINDEFLELLEEDFLEKHLHIALQHSHDLMLERMNRRNRTKSDRELLETIASKNFAIGTDFIVGHPGESGSVFEKAFKNLESLPLTHIHPFIYSKRKDTPSSLMTDSVSLEDSKKRLNAIKDLIFHKNKAFRQLQLKLNTPLKALVEVQKDGEFKALDQFFNPIKIKSDKPLRASFLEIKEYEIKERENHAVF | 0.21 OD595 |  | 
